Experimental data reported in patent publication US11390894B2, “Biological processes for the production of aryl sulfates” (CysBio ApS, priority 2014, dated 2022).

What was measured:
Format in all cases: cell-based, Escherichia coli
pHCA [1] = assay: Production of zosteric acid in E. coli from pHCA through heterologous expression of sulfotransferases; conditions: culture media; M9 glucose, 0.1 mM IPTG, 0.1 mM pHCA, four days of growth
Source text: A range of aryl sulfotransferases including SULT1A1 Rattus norvegicus (SEQ ID NO: 1), SULT1A1 Homo sapiens (SEQ ID NO: 2), SULT1A1 Equus caballus (SEQ ID NO: 3), SULT1A1 Sus scrofa domesticus (SEQ ID NO: 4), SULT1A1 Canis lupus familiaris (SEQ ID NO: 5) and SULT1E1 Gallus gallus domesticus (SEQ ID NO: 6) were expressed in Escherichia coli. […]. The nucleotide sequence of the gene encoding SEQ ID NO: 2 was codon optimized for expression in Escherichia coli (GeneArt, Life Technologies) and amplified by PCR using the primers in Table 1. The pETDuet-1 plasmid was digested with restriction endonucleases Ncol and Sal. The PCR products were then individually cloned into the plasmid pETDuet-1 using the Gibson reaction (New England Biolabs). The resulting plasmids were transformed into BL21(DE3)pLysS (Life Technologies).
(§1) The strains were grown in M9 minimal media containing glucose as a carbon source, and 0.1 mM IPTG for induction of gene expression as well as 0.1 mM p-coumaric acid (pHCA). After four days of growth, samples were withdrawn by filtration and analyzed by HPLC.
(§2) The concentration of p-courmaric acid (pHCA) and zosteric acid in the supernatant was quantified by high performance (HPLC) and compared to chemical standards. HPLC was done on a Thermo setup using a HS-F5 column and mobile phases: 5 mM ammonium formate pH 4.0 (A) and acetonitrile (B) at 1.5 mL min-1, using a gradient elution starting at 5% B. From 0.5 min after injection to 7 min, the fraction of B increased linearly from 5% to 60%, and between 9.5 min and 9.6 the fraction of B decreased back to 5%, and remaining there until 12 min. pHCA and zosteric acid were quantified by measuring absorbance at 277 nm.
Zosteric acid was formed with an aryl sulfotransferase heterologously expressed in a microorganism exemplified by E. coli supplied with the substrate.

kaempferol = assay: Percent conversion of substrate by E. coli cells expressing sulfotransferases; conditions: 87 μM kaempferol, M9 medium, overnight 37° C.
Description: as §2
(§3) Different sulfotransferases were examined for their substrate specificities against three substrates. We tested the sulfotransferases mentioned in example 1, as well as additional ones. The genes encoding these were cloned as described in example 1 using the primers shown in the table below from cDNA libraries of the respective organisms, except for the SULT1A1 from rat (Rattus norvegicus) codon-optimized for E. coli (described above). The resulting vectors were transformed into BL21(DE3)pLysS.
(§4) The resulting strains were grown in M9 medium containing either 100 μM pHCA, 95 μM resveratrol or 87 M kaempferol. The cultures were grown overnight at 37° C., 300 rpm. The following day the supernatants were isolated and examined by HPLC as described in example 1.

pHCA [2] = assay: as above; conditions: 100 μM pHCA, M9 medium, overnight 37° C.
Description: as §2, §3, §4

resveratrol = assay: as above; conditions: 95 μM resveratrol, M9 medium, overnight 37° C.
Description: as §2, §3, §4

pHCA [3] = assay: Zosteric acid production in E. coli expressing an aryl sulfotransferase in combination with cysDNC and cysQ; conditions: grown as in Example 1 (0.1 mM pHCA)
Description: as §1, §2
The plasmid pRSFDuet-1 (Life Technologies) was digested by the restriction endonucleases NdeI and BgIII. The gene cluster was inserted into the digested plasmid using the Gibson reaction (New England Biolabs). […] For the combined expression of cysDNC and cysQ in an artificial operon, cysDNCQ, the two parts were amplified by PCR from E. coli MG1655 chromosomal DNA using the primers shown in Table 3. Again the parts were inserted into the digested plasmid. […] The plasmid expressing SULT1A1 Homo sapiens (SEQ ID NO: 2) from example 1 was co-transformed into E. coli BL21(DE3)pLysS cells (Life Technologies) with either the plasmid expressing cysDNC or cysDNCQ.
Cells were grown as in Example 1 and the supernatants were analyzed for product formation as in example 1. The strain expressing SULT1A1 in combination with cysDNCQ was also grown without the addition of IPTIG for induction.

B1: SULT1A1 Sus scrofa domesticus: aryl sulfotransferase SULT1A1 Sus scrofa domesticus (SEQ ID NO: 4) (protein, listed as Sus scrofa)
chain: MEPVQDTYRPPLEYVKGVPLIKYFAEALGPLESFQAWPDDVLISTYPKSGTTWVSEILDLIYQGGDLQKCQRAPIFVRVPFLEFKIPGCPTGFELLKDTPAPRLLKTHLPLALLPQTLLDQKVKVVYVARNAKDVAVSYYHFYRMAKVHPNPGTWDSFLEDFMAGEVSYGSWYQHVQEWWELRHTHPVLYLFYEDMKENPKREIQKILEFVGRSLPEETVEDIVQHTSFQEMKNNAMTNYRTLPSDLLDHSISAFMRKGITGDWKSTFTVAQNERFEADYAEKMAGCNLRFRSEL
Zosteric acid formed (pHCA [1]): 0.01 mM | pHCA remaining (pHCA [1]): 0.09 mM | percent conversion of kaempferol (kaempferol): 45% | percent conversion of pHCA (pHCA [2]): 8% | percent conversion of resveratrol (resveratrol): 88%

B2: SULT1A1 Canis lupus familiaris: aryl sulfotransferase SULT1A1 Canis lupus familiaris (SEQ ID NO: 5) (protein, listed as Canis lupus)
chain: MEDIPDTSRPPLKYVKGIPLIKYFAEALESLQDFQAQPDDLLISTYPKSGTTWVSEILDMIYQDGDVEKCRRAPVFIRVPFLEFKAPGIPTGLEVLKDTPAPRLIKTHLPLALLPQTLLDQKVKVVYVARNAKDVAVSYYHFYRMAKVHPDPDTWDSFLEKFMAGEVSYGSWYQHVQEWWELSHTHPVLYLFYEDMKENPKREIQKILKFVGRSLPEETVDLIVQHTSFKEMKNNSMANYTTLSPDIMDHSISAFMRKGISGDWKTTFTVAQNERFDADYAKKMEGCGLSFRTQL
Zosteric acid formed (pHCA [1]): 0.01 mM | pHCA remaining (pHCA [1]): 0.10 mM | percent conversion of kaempferol (kaempferol): 60% | percent conversion of pHCA (pHCA [2]): 34% | percent conversion of resveratrol (resveratrol): 61%

B3: SULT1A1 Equus caballus: aryl sulfotransferase SULT1A1 Equus caballus (SEQ ID NO: 3) (protein, listed as Equus caballus)
chain: MELIQDTSRPPLKYVKGVPLIKYFAEALGPLQSFQARPDDLLISTYPKSGTTWVSEILDMIYHGGDLEKCRRAPIFIRVPFLEFKAPEIPSGVEVLKDTPAPRLLKTHLPLSLLPQTLLDQKVKVVYLARNAKDVAVSYYHFYRMAKVHPDPGTWDSFLEKFMAGEVSYGSWYKHVQEWWELSHTHPVLYLFYEDMKENPKKEIQKILEFVGRSLPEETLDRIVQHTSFKEMKKNPMANYSTIPCDIMDHNISAFMRKGIAGDWKNTFTVAQNEHFDTDYAEKMAGCKLSFRSEV
Zosteric acid formed (pHCA [1]): 0.01 mM | pHCA remaining (pHCA [1]): 0.09 mM | percent conversion of kaempferol (kaempferol): 96% | percent conversion of pHCA (pHCA [2]): 21% | percent conversion of resveratrol (resveratrol): 100%

B4: SULT1E1 Gallus gallus domesticus: aryl sulfotransferase SULT1E1 Gallus gallus domesticus (SEQ ID NO: 6) (protein, listed as Gallus gallus)
chain: MGNDEVIRQDLGCLYDIPLYKCFVAGWPQVEAFQARPDDLLIATYPKSGTTWLSEILDAIYHDGDLEKCRRDAIYNRVPFLEMKAPGILSGVEQLEKIPSPRLVKTHLPVHLLPASFQEKDCKVIYMARNAKDVVISYYYFYQMAKIHPDPGTLSEFLQAFMDGKVAYGSWYKHVKGWWEKRHEKRLLYLFYEDMKKDPRREIQKILQFLGKEVAEETVARILHHTSFQEMKKNPATNYETMPTELMDHSLSPFMRKGISGDWANHFTVAQNERFDQHYQQQMAGSDLCFQMEA
Zosteric acid formed (pHCA [1]): 0.01 mM | pHCA remaining (pHCA [1]): 0.08 mM | percent conversion of kaempferol (kaempferol): 47% | percent conversion of pHCA (pHCA [2]): 17% | percent conversion of resveratrol (resveratrol): 100%

B5: SULT1A1 Homo sapiens: aryl sulfotransferase SULT1A1 Homo sapiens (SEQ ID NO: 2) (protein, listed as Homo sapiens)
chain: MELIQDTSRPPLEYVKGVPLIKYFAEALGPLQSFQARPDDLLISTYPKSGTTWVSQILDMIYQGGDLEKCHRAPIFMRVPFLEFKAPGIPSGMETLKDTPAPRLLKTHLPLALLPQTLLDQKVKVVYVARNAKDVAVSYYHFYHMAKVHPEPGTWDSFLEKFMVGEVSYGSWYQHVQEWWELSRTHPVLYLFYEDMKENPKREIQKILEFVGRSLPEETVDFMVQHTSFKEMKKNPMTNYTTVPQEFMDHSISPFMRKGMAGDWKTTFTVAQNERFDADYAEKMAGCSLSFRSEL
Zosteric acid formed (pHCA [1]): 0.02 mM | pHCA remaining (pHCA [1]): 0.08 mM | Zosteric acid formed (pHCA [3]; induction 0.1 mM IPTG): 0.02 mM | pHCA remaining (pHCA [3]; induction 0.1 mM IPTG): 0.08 mM | percent conversion of kaempferol (kaempferol): 97% | percent conversion of pHCA (pHCA [2]): 39% | percent conversion of resveratrol (resveratrol): 36%

B6: SULT1A1 Homo sapiens, CysDNC: SULT1A1 Homo sapiens co-expressed with E. coli cysDNC (ATP sulfurylase and APS kinase) (protein, UniProt P50225 1-295, looked up)
Sulfotransferase 1A1: MELIQDTSRPPLEYVKGVPLIKYFAEALGPLQSFQARPDDLLISTYPKSGTTWVSQILDMIYQGGDLEKCHRAPIFMRVPFLEFKAPGIPSGMETLKDTPAPRLLKTHLPLALLPQTLLDQKVKVVYVARNAKDVAVSYYHFYHMAKVHPEPGTWDSFLEKFMVGEVSYGSWYQHVQEWWELSRTHPVLYLFYEDMKENPKREIQKILEFVGRSLPEETVDFVVQHTSFKEMKKNPMTNYTTVPQEFMDHSISPFMRKGMAGDWKTTFTVAQNERFDADYAEKMAGCSLSFRSEL
modifications: co-expressed with E. coli cysDNC
Zosteric acid formed (pHCA [3]; induction 0.1 mM IPTG): 0.06 mM | pHCA remaining (pHCA [3]; induction 0.1 mM IPTG): 0.06 mM

B7: SULT1A1 Homo sapiens, CysDNCQ: SULT1A1 Homo sapiens co-expressed with E. coli artificial operon cysDNCQ (plus PAP phosphatase cysQ) (protein, UniProt P50225 1-295, looked up)
Sulfotransferase 1A1: MELIQDTSRPPLEYVKGVPLIKYFAEALGPLQSFQARPDDLLISTYPKSGTTWVSQILDMIYQGGDLEKCHRAPIFMRVPFLEFKAPGIPSGMETLKDTPAPRLLKTHLPLALLPQTLLDQKVKVVYVARNAKDVAVSYYHFYHMAKVHPEPGTWDSFLEKFMVGEVSYGSWYQHVQEWWELSRTHPVLYLFYEDMKENPKREIQKILEFVGRSLPEETVDFVVQHTSFKEMKKNPMTNYTTVPQEFMDHSISPFMRKGMAGDWKTTFTVAQNERFDADYAEKMAGCSLSFRSEL
modifications: co-expressed with E. coli cysDNCQ
Zosteric acid formed (pHCA [3]; induction 0.1 mM IPTG): 0.09 mM | pHCA remaining (pHCA [3]; induction 0.1 mM IPTG): 0.04 mM | pHCA remaining (pHCA [3]; induction None): 0.10 mM
